The results in this text go back to IntAct's records for PubMed 30564455.

The target of the experiment is ddb1_human DDB1 (UniProt Q16531).
ddb1_human DDB1, sequence (Q16531 whole entry): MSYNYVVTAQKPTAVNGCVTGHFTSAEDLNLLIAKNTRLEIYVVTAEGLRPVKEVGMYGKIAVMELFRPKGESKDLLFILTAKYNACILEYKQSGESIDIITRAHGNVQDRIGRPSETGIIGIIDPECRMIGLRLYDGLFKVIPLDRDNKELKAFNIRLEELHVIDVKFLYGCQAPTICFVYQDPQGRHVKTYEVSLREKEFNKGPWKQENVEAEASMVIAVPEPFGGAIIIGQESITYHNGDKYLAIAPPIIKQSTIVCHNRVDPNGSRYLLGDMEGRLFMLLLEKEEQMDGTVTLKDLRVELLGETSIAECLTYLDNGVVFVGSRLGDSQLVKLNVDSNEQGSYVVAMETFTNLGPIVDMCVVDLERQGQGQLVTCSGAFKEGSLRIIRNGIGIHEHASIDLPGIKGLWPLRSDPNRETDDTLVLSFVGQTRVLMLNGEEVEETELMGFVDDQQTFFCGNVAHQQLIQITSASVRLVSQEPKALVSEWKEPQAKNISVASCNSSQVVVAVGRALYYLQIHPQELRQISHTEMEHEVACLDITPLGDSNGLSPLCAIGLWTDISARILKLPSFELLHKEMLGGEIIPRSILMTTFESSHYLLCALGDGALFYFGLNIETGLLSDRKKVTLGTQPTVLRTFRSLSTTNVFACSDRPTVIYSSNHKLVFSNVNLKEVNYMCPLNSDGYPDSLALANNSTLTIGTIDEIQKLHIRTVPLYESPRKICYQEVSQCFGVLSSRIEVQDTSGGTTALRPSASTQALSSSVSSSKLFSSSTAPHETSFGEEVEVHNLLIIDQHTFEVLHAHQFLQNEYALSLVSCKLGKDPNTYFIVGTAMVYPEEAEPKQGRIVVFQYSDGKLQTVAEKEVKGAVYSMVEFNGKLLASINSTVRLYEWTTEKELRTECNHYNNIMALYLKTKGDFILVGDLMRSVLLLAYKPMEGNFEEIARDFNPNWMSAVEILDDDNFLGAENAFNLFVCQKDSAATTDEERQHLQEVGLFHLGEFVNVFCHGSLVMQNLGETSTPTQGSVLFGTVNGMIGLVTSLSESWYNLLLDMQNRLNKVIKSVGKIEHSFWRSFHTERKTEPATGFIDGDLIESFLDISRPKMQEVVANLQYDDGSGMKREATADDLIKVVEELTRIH

Turning to “DET1- and DDB1-associated protein 1 (Homo sapiens) (from UniProt Q9BW61) F16D”, the “effect of a mutation on the interaction” value is “disrupting interaction strength”.

For “DET1- and DDB1-associated protein 1 (Homo sapiens) (from UniProt Q9BW61) H20D”, the “effect of a mutation on the interaction” value was “disrupting interaction strength”.

Turning to “DET1- and DDB1-associated protein 1 (Homo sapiens) (from UniProt Q9BW61) N15D”, the “effect of a mutation on the interaction” value is listed as “disrupting interaction strength”.

Take “DET1- and DDB1-associated protein 1 (Homo sapiens) (from UniProt Q9BW61) P9D”: the “effect of a mutation on the interaction” value is reported as “disrupting interaction strength”.
